T1: SATB1 (UniProt Q01826 Q01826:1-763)
T1 sequence: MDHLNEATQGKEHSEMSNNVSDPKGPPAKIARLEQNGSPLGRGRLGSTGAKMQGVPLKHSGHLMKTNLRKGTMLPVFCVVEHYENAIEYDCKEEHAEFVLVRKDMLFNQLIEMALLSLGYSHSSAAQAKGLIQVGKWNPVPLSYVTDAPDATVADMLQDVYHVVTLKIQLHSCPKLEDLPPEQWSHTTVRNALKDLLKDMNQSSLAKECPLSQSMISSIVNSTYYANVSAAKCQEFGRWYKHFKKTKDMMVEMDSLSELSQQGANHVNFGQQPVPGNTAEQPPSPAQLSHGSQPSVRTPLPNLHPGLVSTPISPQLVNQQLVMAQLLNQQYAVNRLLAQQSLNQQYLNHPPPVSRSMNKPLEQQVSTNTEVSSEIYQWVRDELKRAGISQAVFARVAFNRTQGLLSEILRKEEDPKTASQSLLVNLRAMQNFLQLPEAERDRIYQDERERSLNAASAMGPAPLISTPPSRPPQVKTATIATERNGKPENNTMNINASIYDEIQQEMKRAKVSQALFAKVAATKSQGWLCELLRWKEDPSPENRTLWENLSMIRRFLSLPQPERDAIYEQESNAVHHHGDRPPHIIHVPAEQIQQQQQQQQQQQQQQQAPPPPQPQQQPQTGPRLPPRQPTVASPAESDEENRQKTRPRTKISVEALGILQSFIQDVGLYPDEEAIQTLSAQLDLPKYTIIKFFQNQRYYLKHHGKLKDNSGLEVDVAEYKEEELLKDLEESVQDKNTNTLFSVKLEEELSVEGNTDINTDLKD

B1: CMV-687 to -640 (dsDNA)
DNA 1: TAAATCAATATTGGCTATTGGCCATTGCATACGTTGTATCTATATCATAATATGTACA
DNA 2: TGTACATATTATGATATAGATACAACGTATGCAATGGCCAATAGCCAATATTGATTTA
B2: CMV-593 to -549 (dsDNA)
DNA 1: GGCATTGATTATTGACTAGTTATTAATAGTAATCAATTACGGGGTCATTAGTTCA
DNA 2: TGAACTAATGACCCCGTAATTGATTACTATTAATAACTAGTCAATAATCAATGCC
B3: CMV-639 to -594 (dsDNA)
DNA 1: TATATGTACATTTATATTGGCTCATGTCCAATATGACCGCCATGTTGGCATTGATT
DNA 2: AATCAATGCCAACATGGCGGTCATATTGGACATGAGCCAATATAAATGTACATATA

Key:
CDP (CUX1) = CDP (CUX1) (UniProt P39880 P39880:1-1505); assay: EMSA; settings: tags: pCITE-CDP, TNT reticulocyte lysate; label: radiolabel
Sequence of CDP (CUX1) (P39880 whole entry, one chain of several): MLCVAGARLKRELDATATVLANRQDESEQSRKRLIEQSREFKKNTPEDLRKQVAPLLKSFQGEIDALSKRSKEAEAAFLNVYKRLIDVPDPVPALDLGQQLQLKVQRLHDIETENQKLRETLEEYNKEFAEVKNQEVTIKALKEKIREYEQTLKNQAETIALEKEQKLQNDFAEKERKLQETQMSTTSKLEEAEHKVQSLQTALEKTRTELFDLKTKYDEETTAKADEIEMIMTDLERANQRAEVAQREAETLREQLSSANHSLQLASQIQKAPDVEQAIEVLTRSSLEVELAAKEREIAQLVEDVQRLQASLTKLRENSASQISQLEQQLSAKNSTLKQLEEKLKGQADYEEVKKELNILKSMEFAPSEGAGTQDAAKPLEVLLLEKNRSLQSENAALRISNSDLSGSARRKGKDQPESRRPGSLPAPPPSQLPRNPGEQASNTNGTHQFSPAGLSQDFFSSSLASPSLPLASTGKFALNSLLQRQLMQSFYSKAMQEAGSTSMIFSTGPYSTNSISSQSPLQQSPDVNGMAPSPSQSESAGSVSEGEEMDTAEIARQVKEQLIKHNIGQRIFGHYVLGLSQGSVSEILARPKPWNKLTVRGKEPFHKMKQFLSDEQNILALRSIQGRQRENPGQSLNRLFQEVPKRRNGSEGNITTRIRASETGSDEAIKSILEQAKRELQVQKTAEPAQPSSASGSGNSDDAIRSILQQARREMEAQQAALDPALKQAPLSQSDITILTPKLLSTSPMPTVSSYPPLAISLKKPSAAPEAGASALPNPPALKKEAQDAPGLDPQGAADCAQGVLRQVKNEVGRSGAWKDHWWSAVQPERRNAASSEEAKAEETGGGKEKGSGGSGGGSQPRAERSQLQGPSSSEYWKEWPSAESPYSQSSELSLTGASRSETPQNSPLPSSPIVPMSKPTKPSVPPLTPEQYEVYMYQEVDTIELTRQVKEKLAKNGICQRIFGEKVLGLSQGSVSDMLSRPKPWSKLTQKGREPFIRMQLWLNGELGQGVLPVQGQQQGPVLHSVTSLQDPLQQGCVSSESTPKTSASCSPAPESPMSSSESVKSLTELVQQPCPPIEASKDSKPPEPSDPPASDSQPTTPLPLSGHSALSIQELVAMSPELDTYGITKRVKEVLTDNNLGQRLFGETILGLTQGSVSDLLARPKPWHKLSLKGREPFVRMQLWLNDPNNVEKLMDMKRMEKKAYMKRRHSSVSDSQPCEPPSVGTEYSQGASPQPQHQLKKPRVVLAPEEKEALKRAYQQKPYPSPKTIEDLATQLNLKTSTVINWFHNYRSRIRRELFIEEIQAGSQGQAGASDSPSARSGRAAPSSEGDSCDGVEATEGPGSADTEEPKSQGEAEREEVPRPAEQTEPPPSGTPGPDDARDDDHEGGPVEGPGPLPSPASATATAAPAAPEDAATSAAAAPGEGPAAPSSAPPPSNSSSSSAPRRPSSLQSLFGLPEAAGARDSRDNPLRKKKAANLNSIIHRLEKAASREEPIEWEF

PDX1 [1] = biological target: T2, PDX1 (UniProt P52945 P52945:1-283); assay: EMSA; positive control; settings: tags: pCITE-PDX1, TNT reticulocyte lysate; label: radiolabel
T2 sequence (P52945 whole entry, one chain of several): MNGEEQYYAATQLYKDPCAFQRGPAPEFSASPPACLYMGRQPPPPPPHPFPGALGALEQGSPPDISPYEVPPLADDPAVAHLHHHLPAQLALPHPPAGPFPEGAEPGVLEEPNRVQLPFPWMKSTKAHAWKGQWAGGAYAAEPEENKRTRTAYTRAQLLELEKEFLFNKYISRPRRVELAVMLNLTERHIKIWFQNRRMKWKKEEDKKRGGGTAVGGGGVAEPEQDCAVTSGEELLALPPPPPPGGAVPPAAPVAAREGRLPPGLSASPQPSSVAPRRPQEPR

SATB1 = biological target: T1, SATB1; assay: EMSA; settings: tags: pCITE-SATB1, TNT reticulocyte lysate; label: radiolabel
PDX1 [2] = biological target: T2, PDX1; assay: EMSA; settings: tags: pCITE-PDX1, TNT reticulocyte lysate; label: radiolabel

Binder	binding result (CDP (CUX1))	binding result (PDX1 [1])	binding result (SATB1)	binding result (PDX1 [2])
B1	binds			
B2	binds	binds		
B3	no binding		no binding	no binding
